The source of these data is PMC10786891, “Massively parallel profiling of RNA-targeting CRISPR-Cas13d”.

Changes are numbered by the printed parent chain. Numbers in names are those of the source.

The labels stand for the following.
T1: EsCas13d, nuclease-dead (Eubacterium siraeum, UniProt B0MS50, R295A;H300A;R849A;H854A)
T1 sequence: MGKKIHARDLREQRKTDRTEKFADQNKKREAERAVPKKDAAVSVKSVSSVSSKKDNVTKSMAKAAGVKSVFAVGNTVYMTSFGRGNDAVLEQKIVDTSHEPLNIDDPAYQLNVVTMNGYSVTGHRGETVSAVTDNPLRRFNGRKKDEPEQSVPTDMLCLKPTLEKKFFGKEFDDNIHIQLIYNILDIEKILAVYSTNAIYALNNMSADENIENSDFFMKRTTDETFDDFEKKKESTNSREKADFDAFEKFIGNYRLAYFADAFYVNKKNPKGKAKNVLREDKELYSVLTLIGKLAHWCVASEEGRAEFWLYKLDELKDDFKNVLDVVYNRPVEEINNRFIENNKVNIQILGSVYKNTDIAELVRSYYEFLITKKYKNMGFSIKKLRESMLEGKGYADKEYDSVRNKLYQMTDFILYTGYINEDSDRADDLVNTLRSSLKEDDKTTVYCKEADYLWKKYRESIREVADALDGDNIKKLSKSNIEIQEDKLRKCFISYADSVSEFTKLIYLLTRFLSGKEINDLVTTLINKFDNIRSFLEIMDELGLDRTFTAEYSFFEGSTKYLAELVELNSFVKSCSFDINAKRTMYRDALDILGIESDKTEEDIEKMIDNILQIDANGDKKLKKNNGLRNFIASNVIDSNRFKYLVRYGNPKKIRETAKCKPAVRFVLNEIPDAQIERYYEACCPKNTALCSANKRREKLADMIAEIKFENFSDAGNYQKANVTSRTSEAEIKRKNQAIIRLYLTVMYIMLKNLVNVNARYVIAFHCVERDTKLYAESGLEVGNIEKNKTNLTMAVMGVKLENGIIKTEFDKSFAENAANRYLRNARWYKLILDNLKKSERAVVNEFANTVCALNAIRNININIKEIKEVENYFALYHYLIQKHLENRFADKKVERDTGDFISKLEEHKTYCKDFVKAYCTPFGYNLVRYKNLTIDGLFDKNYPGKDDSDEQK

B1: target 1 insA 3' of 21,insC 3' of 1 (mixed)
RNA 1: CACCCGUGCAAAAAUGCAGGGGUCUAAAACUGAGCGGAUAACCUCUCUAUGG
RNA 2: GGGAAUGGAUCCACAUCUACGAAUUCGUACCAAUAGAGAGGUUAUCCGCUCACCCGAGAUCGGAAGAGCACACGU
B2: target 1 U10A,G15A (mixed)
RNA 1: B1 RNA 1
RNA 2: GGGAAUGGAUCCACAUCUACGAAUUCGUACCAUAGAAAGGUAAUCCGCUCACCGAGAUCGGAAGAGCACACGU
B3: target 1 insA 3' of 22,insU 3' of 22 (mixed)
RNA 1: B1 RNA 1
RNA 2: GGGAAUGGAUCCACAUCUACGAAUUCGUACAUCAUAGAGAGGUUAUCCGCUCACCGAGAUCGGAAGAGCACACGU
B4: target 1 U11C,G13A (mixed)
RNA 1: B1 RNA 1
RNA 2: B2 RNA 2 with A37G, G39A, U41C, A42U
B5: target 1 insC 3' of 20,insU 3' of 20 (mixed)
RNA 1: B1 RNA 1
RNA 2: B3 RNA 2 with A31C, U32A, A34U
B6: target 1 insC 3' of 14,insA 3' of 4 (mixed)
RNA 1: B1 RNA 1
RNA 2: GGGAAUGGAUCCACAUCUACGAAUUCGUACCAUAGAGACGGUUAUCCGCAUCACCGAGAUCGGAAGAGCACACGU
B7: target 1 complement block 1-10 (mixed)
RNA 1: B1 RNA 1
RNA 2: GGGAAUGGAUCCACAUCUACGAAUUCGUACCAUAGAGAGGUAUAGGCGAGUCCGAGAUCGGAAGAGCACACGU
B8: target 1 insG 3' of 22,insA 3' of 17 (mixed)
RNA 1: B1 RNA 1
RNA 2: B3 RNA 2 with A31G, U32C, C33A, A34U, U35A, A36G, G37A
B9: target 1 G12C,A14C (mixed)
RNA 1: B1 RNA 1
RNA 2: B2 RNA 2 with A37G, A38C, G40C, A42U
B10: target 1 insG 3' of 22,insG 3' of 2 (mixed)
RNA 1: B1 RNA 1
RNA 2: B1 RNA 2 with C31G, A32C, A52G, C53A
B11: target 1 C6A,U10C (mixed)
RNA 1: B1 RNA 1
RNA 2: B2 RNA 2 with A37G, A42C, C46A
B12: target 1 U19C,A20G (mixed)
RNA 1: B1 RNA 1
RNA 2: B2 RNA 2 with A32G, U33C, A37G, A42U
B13: target 1 C2A,U11G (mixed)
RNA 1: B1 RNA 1
RNA 2: B2 RNA 2 with A37G, U41G, A42U, C50A
B14: target 1 insC 3' of 15,insU 3' of 7 (mixed)
RNA 1: B1 RNA 1
RNA 2: B6 RNA 2 with A38C, C39A, C47U, G48C, C49G, A50C
B15: target 1 insA 3' of 21,insU 3' of 1 (mixed)
RNA 1: B1 RNA 1
RNA 2: B1 RNA 2 with C53U
B16: target 1 G15U,G17U (mixed)
RNA 1: B1 RNA 1
RNA 2: B2 RNA 2 with G35U, A37U, A42U
B17: target 1 insG 3' of 9,insC 3' of 8 (mixed)
RNA 1: B1 RNA 1
RNA 2: B6 RNA 2 with C39G, G41U, U43A, A44G, G48C, C49G, A50C
B18: target 1 C4G,G5C (mixed)
RNA 1: B1 RNA 1
RNA 2: B2 RNA 2 with A37G, A42U, G47C, C48G
B19: target 1 insU 3' of 21,insA 3' of 4 (mixed)
RNA 1: B1 RNA 1
RNA 2: B1 RNA 2 with A32U, U50A, C51U, A52C, C53A
B20: target 1 insC 3' of 13,insU 3' of 6 (mixed)
RNA 1: B1 RNA 1
RNA 2: B6 RNA 2 with C39G, G40C, G48U, C49G, A50C
B21: target 1 C7A,A20G (mixed)
RNA 1: B1 RNA 1
RNA 2: B2 RNA 2 with A32G, A37G, A42U, C45A
B22: target 1 complement block 2-10 (mixed)
RNA 1: B1 RNA 1
RNA 2: B7 RNA 2 with U51A
B23: target 1 insU 3' of 21,insU 3' of 18 (mixed)
RNA 1: B1 RNA 1
RNA 2: B3 RNA 2 with A31C, C33A, A34U, U35A, A36U
B24: target 1 insG 3' of 10,insA 3' of 4 (mixed)
RNA 1: B1 RNA 1
RNA 2: B6 RNA 2 with C39G, G41U, U43G
B25: target 1 U8G,G15A (mixed)
RNA 1: B1 RNA 1
RNA 2: B2 RNA 2 with A42U, U44G
B26: target 1 U19A,A20G (mixed)
RNA 1: B1 RNA 1
RNA 2: B2 RNA 2 with A32G, U33A, A37G, A42U
B27: target 1 insG 3' of 9,insU 3' of 7 (mixed)
RNA 1: B1 RNA 1
RNA 2: B6 RNA 2 with C39G, G41U, U43A, A44G, C47U, G48C, C49G, A50C
B28: target 1 C4G,U10C (mixed)
RNA 1: B1 RNA 1
RNA 2: B2 RNA 2 with A37G, A42C, C48G
B29: target 1 insC 3' of 20,insA 3' of 6 (mixed)
RNA 1: B1 RNA 1
RNA 2: B1 RNA 2 with A33C, G48A, C49G, U50C, C51U, A52C, C53A
B30: target 1 U11A,C22U (mixed)
RNA 1: B1 RNA 1
RNA 2: B2 RNA 2 with C30U, A37G, U41A, A42U
B31: target 1 G13A,A16U (mixed)
RNA 1: B1 RNA 1
RNA 2: B2 RNA 2 with A36U, A37G, G39A, A42U
B32: target 1 G5A,A16C (mixed)
RNA 1: B1 RNA 1
RNA 2: B2 RNA 2 with A36C, A37G, A42U, G47A

By Kd is commonly meant the equilibrium constant for the complex coming apart. Lower therefore signals tighter binding.

This data set deals with T1, EsCas13d, nuclease-dead. Briefly: crRNA (strand 1, pre-loaded); Mg2+; 40 mM Tris-HCl pH 7.5, 150 mM NaCl, 6 mM MgCl2, 1 mM DTT, 0.1% Tween-20, 0.2 mg/ml BSA; 25 C; 10 min per concentration, then washed. The conditions noted are these: tags: His6-TwinStrep-SUMO cleaved; N-terminal SNAP kept (SNAP-Surface 488); label: 3' end held by stalled T7 RNA polymerase.
The molecule B1 yielded a Kd of 13.7 ± 0.7 nM.
Regarding B2, the Kd stood at 31 ± 3 nM.
To B3 belongs 12.5 ± 1 nM; to B4, 8.7 ± 1.3 nM.
B5 came in with a Kd of 18.3 ± 0.9 nM.
As for B6, the Kd amounted to 24.3 ± 1.9 nM.
Regarding B7, the Kd is 16.6 ± 0.6 nM.
Molecule B8 returned a Kd of 71 ± 24 nM.
B9 showed a dissociation constant Kd of 89 ± 33 nM.
B10 came in with a Kd of 38 ± 5 nM.
B11 had a Kd of 18.8 ± 1.4 nM.
On to B12, for which the affinity, expressed as Kd, was 55 ± 22 nM.
As to B13, binding was characterised by a dissociation constant (Kd) of 16.6 ± 1 nM.
As to B14, the affinity, expressed as Kd, was 17.1 ± 0.9 nM.
As for B15, the Kd worked out at 18.5 ± 1.3 nM.
To B16 belongs 86 ± 21 nM; to B17, 29.5 ± 2.9 nM.
On to B18, for which the affinity, expressed as Kd, was 15.7 ± 1 nM.
With B19, the affinity, expressed as Kd, was 15.6 ± 1.3 nM.
On to B20, for which the Kd worked out at 11 ± 0.9 nM.
B21 displayed a Kd of 45 ± 13 nM.
To B22 belongs 13.3 ± 0.6 nM; to B23, 52 ± 5 nM.
As to B24, binding was characterised by a dissociation constant (Kd) of 35 ± 5 nM.
To B25 belongs 56 ± 6 nM; to B26, 56 ± 7 nM.
For B27, the equilibrium dissociation constant (Kd) stood at 16.4 ± 0.8 nM.
B28: the Kd came out at 5.15 ± 0.3 nM.
Take B29: the Kd was 11.1 ± 0.6 nM.
Take B30: the Kd was found to be 52 ± 16 nM.
Take B31: the Kd worked out at 43 ± 6 nM.
In the case of B32, the Kd is 57 ± 12 nM.
